± gives the standard deviation of the averaged measurements.
B1: library; a variant is named by its letters at N, in order (parent)
chain: GCUGUCACCGGUGUAUUACCCUAGUGGUCGACCGGUCUGAUGAGUCUNNNNNNAGACGAAACAGC

Assays:
hypoxanthine [1] = variants of: B1; assay: FACS-Seq fitted mean relative fluorescence mCherry/BFP without ligand (log10 relative fluorescence); ligand: hypoxanthine (xanthine aptamer); higher = higher reporter protein expression; conditions: HEK293T, ligand present: no
Method: (§1)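 Hammerhead (sTRSV) ribozyme switch libraries with a ligand aptamer grafted on stem I and a randomized N4-6 loop II, cloned into the 3' UTR of mCherry and transiently transfected into HEK293T cells; RNA-Seq 72 h post transfection with ligand added 1 h before transfection; RNA read count / plasmid DNA read count normalized to the non-cleaving sTRSVctl (x100), log10; sequences with >100 DNA reads. FACS-Seq: lentiviral library sorted into 6 bins after 48 h ligand, log-normal fit mean of mCherry/BFP scaled to controls. Printed sequences are partial switch sequences.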

hypoxanthine [2] = variants of: B1; assay: normalized RNA/DNA level with ligand (relative to sTRSVctl = 100) (log10 (% of sTRSVctl)); ligand: hypoxanthine (xanthine aptamer); higher = less ribozyme self-cleavage, higher mRNA level; conditions: ligand concentration (+) RNA-Seq: 5 mM, HEK293T, reporter: mCherry (pCS4076), ligand present: yes
Method: as §1

hypoxanthine [3] = variants of: B1; assay: normalized RNA/DNA level without ligand (relative to sTRSVctl = 100) (log10 (% of sTRSVctl)); ligand: hypoxanthine (xanthine aptamer); higher = less ribozyme self-cleavage, higher mRNA level; conditions: HEK293T, reporter: mCherry (pCS4076), ligand present: no
Method: as §1

hypoxanthine [4] = variants of: B1; assay: FACS-Seq fitted mean relative fluorescence mCherry/BFP with ligand (log10 relative fluorescence); ligand: hypoxanthine (xanthine aptamer); ligand concentration (+) FACS-Seq: 5 mM; higher = higher reporter protein expression; conditions: HEK293T, ligand present: yes
Method: as §1

Variant	FACS-Seq fitted mean (log10) (hypoxanthine [1])	normalized RNA/DNA level with ligand (log10) (hypoxanthine [2])	normalized RNA/DNA level without ligand (log10) (hypoxanthine [3])	FACS-Seq fitted mean (log10) (hypoxanthine [4])
GCUGUCACCGGUGUAUUACCCUAGUGGUCGACCGGUCUGAUGAGUCUGGCCUGAGACGAAACAGC [GGCCUG]	0.145 ± 0.02	1.99 ± 0.062	1.809 ± 0.013	0.239 ± 0.046
GCUGUCACCGGUGUAUUACCCUAGUGGUCGACCGGUCUGAUGAGUCUUCCAGUAGACGAAACAGC [UCCAGU]	0.305 ± 0.066	1.96 ± 0.066	1.771 ± 0.013	0.502 ± 0.0098
GCUGUCACCGGUGUAUUACCCUAGUGGUCGACCGGUCUGAUGAGUCUCCGACCAGACGAAACAGC [CCGACC]	0.287 ± 0.081	2.08 ± 0.082	1.85 ± 0.063	0.555 ± 0.015
GCUGUCACCGGUGUAUUACCCUAGUGGUCGACCGGUCUGAUGAGUCUCAGAGGAGACGAAACAGC [CAGAGG]	0.273 ± 0.0028	1.813 ± 0.0092	1.21 ± 0.06	0.702 ± 0.048
GCUGUCACCGGUGUAUUACCCUAGUGGUCGACCGGUCUGAUGAGUCUCUUAACAGACGAAACAGC [CUUAAC]	0.554 ± 0.03	1.89 ± 0.059	1.82 ± 0.036	0.637 ± 0.05
GCUGUCACCGGUGUAUUACCCUAGUGGUCGACCGGUCUGAUGAGUCUUUCAAGAGACGAAACAGC [UUCAAG]	0.352 ± 0.023	1.907 ± 0.0058	1.72 ± 0.056	0.545 ± 0.024
GCUGUCACCGGUGUAUUACCCUAGUGGUCGACCGGUCUGAUGAGUCUAGUUAAAGACGAAACAGC [AGUUAA]	0.799 ± 0.015	1.92 ± 0.04	1.76 ± 0.032	0.802 ± 0.094
GCUGUCACCGGUGUAUUACCCUAGUGGUCGACCGGUCUGAUGAGUCUGGUAAAAGACGAAACAGC [GGUAAA]	0.652 ± 0.01	1.9 ± 0.022	1.69 ± 0.007	0.581 ± 0.029
GCUGUCACCGGUGUAUUACCCUAGUGGUCGACCGGUCUGAUGAGUCUCCGAUUAGACGAAACAGC [CCGAUU]	0.52 ± 0.04	1.963 ± 0.019	1.78 ± 0.027	0.524 ± 0.036
GCUGUCACCGGUGUAUUACCCUAGUGGUCGACCGGUCUGAUGAGUCUAUAUUCAGACGAAACAGC [AUAUUC]	0.242 ± 0.014	1.92 ± 0.042	1.88 ± 0.051	0.166 ± 0.071
GCUGUCACCGGUGUAUUACCCUAGUGGUCGACCGGUCUGAUGAGUCUUGAGAGAGACGAAACAGC [UGAGAG]	0.372 ± 0.012	1.87 ± 0.03	1.67 ± 0.04	0.364 ± 0.023
GCUGUCACCGGUGUAUUACCCUAGUGGUCGACCGGUCUGAUGAGUCUACUUAAAGACGAAACAGC [ACUUAA]	0.504 ± 0.046	1.933 ± 0.0065	1.787 ± 0.01	0.596 ± 0.075
GCUGUCACCGGUGUAUUACCCUAGUGGUCGACCGGUCUGAUGAGUCUAGAGGAAGACGAAACAGC [AGAGGA]	0.5707 ± 0.0052	1.892 ± 0.016	1.6297 ± 0.00023	0.701 ± 0.028
GCUGUCACCGGUGUAUUACCCUAGUGGUCGACCGGUCUGAUGAGUCUGCAUCGAGACGAAACAGC [GCAUCG]	0.0876 ± 0.11	1.964 ± 0.018	1.506 ± 0.0042	0.53188 ± 0.00023
GCUGUCACCGGUGUAUUACCCUAGUGGUCGACCGGUCUGAUGAGUCUGUGGGGAGACGAAACAGC [GUGGGG]	0.0309 ± 0.01	1.841 ± 0.016	1.45 ± 0.029	0.399 ± 0.07
GCUGUCACCGGUGUAUUACCCUAGUGGUCGACCGGUCUGAUGAGUCUAGGUCAAGACGAAACAGC [AGGUCA]	0.881 ± 0.045	1.94 ± 0.071	1.68 ± 0.052	0.729 ± 0.035
GCUGUCACCGGUGUAUUACCCUAGUGGUCGACCGGUCUGAUGAGUCUUUGAGCAGACGAAACAGC [UUGAGC]	0.0741 ± 0.098	1.977 ± 0.003	1.89 ± 0.025	0.129 ± 0.018
GCUGUCACCGGUGUAUUACCCUAGUGGUCGACCGGUCUGAUGAGUCUACAAGGAGACGAAACAGC [ACAAGG]	-0.00738 ± 0.11	1.83 ± 0.065	1.26 ± 0.024	0.113 ± 0.14
GCUGUCACCGGUGUAUUACCCUAGUGGUCGACCGGUCUGAUGAGUCUAAUCCUAGACGAAACAGC [AAUCCU]	0.417 ± 0.063	1.94 ± 0.04	1.887 ± 0.008	0.433 ± 0.13
GCUGUCACCGGUGUAUUACCCUAGUGGUCGACCGGUCUGAUGAGUCUAUAUGGAGACGAAACAGC [AUAUGG]	-0.462 ± 0.062	1.802 ± 0.0067	1.374 ± 0.0022	-0.111 ± 0.04
GCUGUCACCGGUGUAUUACCCUAGUGGUCGACCGGUCUGAUGAGUCUUGUUGUAGACGAAACAGC [UGUUGU]	0.254 ± 0.025	1.913 ± 0.0038	1.738 ± 0.011	0.57 ± 0.019
